Data taken from patent publication US20240025995A1.

Experiments:
[1] = target: human FcγRIIb on CHOK1 cells overexpressing FcγRIIb (human) (UniProt P31994); assay: flow cytometry on CHOK1 cells overexpressing FcγRIIb; detection with anti-human kappa antibody
[2] = target: human FcγRIIa (R131) on CHOK1 cells overexpressing FcγRIIa (R131) (human) (UniProt P12318); assay: flow cytometry on CHOK1 cells overexpressing FcγRIIa (R131); detection with anti-human kappa antibody
Chain of UniProt P12318 (P12318 34-317 H167R): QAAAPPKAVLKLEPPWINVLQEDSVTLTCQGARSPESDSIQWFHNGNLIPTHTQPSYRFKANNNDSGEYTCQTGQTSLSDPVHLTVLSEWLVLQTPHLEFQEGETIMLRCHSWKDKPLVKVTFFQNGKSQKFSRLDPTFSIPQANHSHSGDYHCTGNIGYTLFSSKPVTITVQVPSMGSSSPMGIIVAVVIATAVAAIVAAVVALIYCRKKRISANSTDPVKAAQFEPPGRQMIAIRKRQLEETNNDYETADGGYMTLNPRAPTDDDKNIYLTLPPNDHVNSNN

Chain of UniProt P31994 (P31994 43-310): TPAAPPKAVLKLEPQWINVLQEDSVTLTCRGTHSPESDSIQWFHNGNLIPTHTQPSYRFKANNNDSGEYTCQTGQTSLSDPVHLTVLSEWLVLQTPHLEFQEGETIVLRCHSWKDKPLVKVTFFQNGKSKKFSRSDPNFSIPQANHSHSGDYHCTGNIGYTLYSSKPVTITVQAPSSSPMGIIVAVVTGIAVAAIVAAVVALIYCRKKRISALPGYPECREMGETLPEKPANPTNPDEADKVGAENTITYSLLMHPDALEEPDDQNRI

Substance | Log EC50 [1] | Log EC50 [2]
anti-LAG3 SELF (from UniProt P01857 1-330) (antibody) | -0.0779 | –
anti-RSV AAA (from UniProt P01857 1-330) (antibody) | 4.42 | 3.9
